The supplement of paper PMC10567573

B1: RHOBTB2 (parent)
chain: NQEITKAFHVRRTNRVKECLAKGT
B2: RHOBTB3 (parent)
chain: VSHVFMLLFNVKSPTDIQDSSIIR

Variants of: B1
Experiment: protein stability index of a GFP-peptide fusion (GPS, HEK-293T) (PSI 1-6); higher = more stable
Conditions: c terminus: a fixed tail appended
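Further: lentivirally expressed fusions sorted by FACS into six bins by GFP to DsRed ratio, PSI derived from sequencing read proportions per bin multiplied by bin number.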

Protein stability index: each site, then its substitutions
R12: H 3.72 | D 3.78 | L 2.16 | K 4.31 | C 2.68 | Y 2.67 | N 3.92 | G 4.51 | T 3.69 | W 2.38 | V 2.83 | P 3.5 | A 4.05 | S 3.95 | E 4.16 | Q 3.93 | I 2.37 | M 3.29 | F 2.16
H9: M 2.08 | F 2.55 | S 2.98 | Y 3.2 | L 2.77 | G 4.27 | E 4.58 | T 3.31 | W 2.5 | N 4.24 | R 2.87 | V 2.4 | I 3.08 | D 4.12
L20: R 2.74 | G 2.97 | P 2.39 | V 4.62 | Y 2.58 | W 2.22 | S 4.04 | I 4.41 | T 3.45 | N 3.27 | K 3.83 | F 3.44 | M 3.59 | E 4.03 | D 3.98 | Q 3.74 | H 2.84
V16: L 3.92 | S 2.95 | I 2.91 | Y 1.97 | F 2.48 | A 2.78 | P 4.09 | R 3.21 | W 3.4 | C 2.51 | Q 2.79 | D 4.7 | H 2.88 | T 3.02 | M 2.8 | E 3.45 | K 3.41 | N 3.41
R15: D 4.21 | N 3.48 | G 2.9 | K 3.29 | M 3.78 | T 3.87 | W 2.58 | Y 2.86 | Q 3.87 | V 3.73 | S 3.54 | C 3.27 | P 3.29 | A 3.66 | L 3.36 | I 3.12 | F 2.84
G23: L 2.56 | N 3.02 | K 4.17 | W 2.61 | E 3.64 | C 2.67 | A 2.73 | T 2.66 | D 2.73 | Q 2.99 | I 2.61 | Y 2.26 | S 3.11 | R 2.82 | V 1.75 | F 2.07 | P 3.25 | H 2.84
A21: Q 2.65 | Y 2.83 | L 2.61 | I 2.27 | M 2.23 | S 2.48 | K 3.15 | F 2.85 | V 2.8 | W 2.28 | P 3.38 | H 2.35 | E 3.63 | C 1.94 | T 3.73 | N 3.42 | D 3.83
K22: Q 3.28 | E 3.87 | L 2.61 | V 2.3 | R 3.67 | W 2.06 | A 4.19 | I 2.58 | P 3.04 | M 2.73 | N 3.18 | S 3.86 | T 3.74 | C 3.3 | D 3.64 | H 3.03 | F 1.88
K17: M 2.54 | N 2.92 | C 2.22 | Y 2.36 | H 2.94 | G 2.74 | V 2.26 | D 3.64 | Q 2.55 | R 2.47 | P 2.4 | W 2.3 | T 3.15 | E 3.04 | S 3.63 | I 1.75 | L 3.12 | F 2.06
T24: N 3.36 | M 2.86 | R 2.7 | W 2.69 | L 3.53 | H 3.32 | I 2.16 | G 2.92 | P 3.65 | F 1.81 | S 3.61 | C 2.19 | A 3.55 | V 2.7 | K 3.88 | D 3.46
E18: P 2.59 | R 2.74 | N 2.92 | M 2.75 | L 2.83 | W 2.23 | T 3.93 | V 3.4 | A 3.08 | D 3.47 | Y 2.67 | K 3.08 | F 2.59 | G 2.88 | Q 2.87 | H 2.58 | S 2.59 | I 1.94
N14: R 2.97 | M 2.54 | T 2.95 | W 2.15 | L 3.09 | S 2.48 | C 1.88 | A 4.05 | D 3.82 | G 3.17 | Q 3.09 | V 2.83 | K 3.15 | H 3.43 | I 3.58 | E 4.4 | F 2.15 | P 3.38 | Y 1.82
V10: K 4.42 | R 3.91 | Y 3.78 | E 4.71 | P 4.01 | F 3.39 | W 3.35 | T 4.3 | L 3.08 | A 4.09 | Q 3.84 | H 4.46 | I 3.25 | N 3.92 | D 4.25 | C 3.62 | G 3.46
C19: P 3.11 | R 2.9 | K 3.46 | Y 2.33 | W 2.35 | N 3.27 | T 3.65 | M 2.78 | D 3.13 | I 2.5 | E 3.45 | G 3.41 | A 3.42 | V 3.08 | Q 3.35 | S 2.81 | H 2.59 | F 2.77
T13: A 3.72 | N 3.54 | I 2.1 | P 3.98 | K 2.79 | G 2.49 | E 3.97 | S 3.96 | Y 1.78 | M 3.57 | C 2.78 | L 3.32 | D 4.09 | W 2.02 | Q 3.93 | H 3.36
R11: I 2.43 | H 3.94 | Y 2.94 | V 2.22 | W 2.61 | G 4.05 | N 4.05 | P 4.36 | A 4.09 | Q 4.43 | M 2.81 | C 3 | S 3.99 | L 3.21 | E 4.25 | T 3.82 | D 4.01 | F 3.62 | K 3.62

Variants of: B2
Experiment: as above
Conditions: c terminus: a fixed tail appended

Protein stability index, by site and new letter:
V4: F 4.42 | D 2.16 | R 3.04 | K 1.97 | E 1.3 | G 2.28 | Y 1.61 | W 2.46 | N 1.19 | Q 3.13 | T 2.54 | M 2.52 | S 1.89 | C 4.79 | P 2.12
F5: A 1.5 | H 2.29 | E 2.3 | C 2.99 | G 1.19 | D 2.29
H3: L 2.69 | Q 2.51 | R 2.1 | W 3.07 | S 2.28 | D 2.38 | P 1.52 | G 3.65 | E 1.42 | M 1.78 | V 3.75
S2: D 2.44 | A 2.55 | F 3.6 | K 3.57 | W 2.82 | V 3.75 | G 2.58 | M 3.95 | L 3.13 | N 2.84 | Y 2.75
V1: A 2.98 | E 2.08 | D 2.05 | L 1.33 | K 1.05 | M 3.38 | F 2.54 | N 1.89 | W 3.32 | P 3.42 | Q 2.22 | S 2.88 | I 3.46
